The record followed here is publication PMC1635730, “Mesothelin-MUC16 binding is a high affinity, N-glycan dependent interaction that facilitates peritoneal metastasis of ovarian tumors” (Molecular Cancer, 2006).

The target in this assay is T1, MUC16 expressed on the surface of the ovarian tumor cell line OVCAR-3 (human (endogenous in OVCAR-3), UniProt Q8WXI7 1-14507).
T1 construct: also called cell surface MUC16; MUC16 on OVCAR-3 cells; source: endogenous, on OVCAR-3 cells and the control subline #12
The assay is described as follows: flow cytometry on cells; OVCAR-3 cells with increasing amounts of meso-Fc for 1 h; mean fluorescence, non-linear regression (GraphPad Prism); apparent Kd. To be noted: one partner purified. A general note: A flow cytometer gives signals particle by particle.

Several values for one entry are separate records, joined by “and”; a condition that tells them apart may be missing. Equal entries are not always repeated.

B1: recombinant mesothelin tagged with the Fc fragment of rabbit IgG (Fc fusion, human, UniProt Q13421 296-598, looked up)
chain: EVEKTACPSGKKAREIDESLIFYKKWELEACVDAALLATQMDRVNAIPFTYEQLDVLKHKLDELYPQGYPESVIQHLGYLFLKMSPEDIRKWNVTSLETLKALLEVNKGHEMSPQVATLIDRFVKGRGQLDKDTLDTLTAFYPGYLCSLSPEELSSVPPSSIWAVRPQDLDTCDPRQLDVLYPKARLAFQNMNGSEYFVKIQSFLGGAPTEDLKALSQQNVSMDLATFMKLRTDAVLPLTVAEVQKLLGPHVEGLKAEERHRPVRDWILRQRQDDLDTLGLGLQGGIPNGYLVLDLSMQEALS
notes: mesothelin, human, extracellular domain (the 40 kDa fragment of the 70 kDa precursor); GenBank AY743922; Modified pSecTag2 vector containing rabbit IgG Fc; Glycosylated (made in mammalian cells); also called meso-Fc; mesothelin-Fc; source: HEK 293T, transfected, harvested from the culture supernatant, purified (Hi-trap protein A column)
As for B1, the Kd is 5 nM and 5 to 10 nM.
